According to patent US20230227584A1 (published 2023):
Values belong to the binder of their own block, whether it stands above or below them.

How the values were obtained:
[1] = target: T1, human OX40 on the cell surface (activated human T cells; HeLa_hOx40_NFkB_Luc1 reporter cells) (human, UniProt P43489 29-277); assay: cell-based or functional assay
T1 sequence: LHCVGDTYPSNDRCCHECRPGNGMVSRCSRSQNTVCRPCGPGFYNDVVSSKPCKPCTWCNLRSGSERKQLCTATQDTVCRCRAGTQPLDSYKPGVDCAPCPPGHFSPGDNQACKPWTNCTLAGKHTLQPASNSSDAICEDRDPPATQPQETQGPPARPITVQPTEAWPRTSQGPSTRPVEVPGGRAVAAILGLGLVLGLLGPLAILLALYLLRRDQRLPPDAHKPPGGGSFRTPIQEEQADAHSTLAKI

[2] = target: T1, human OX40 on the cell surface …; assay: cell-based or functional assay; remark: listed apart in the source
[3] = target: T2, human fibroblast activation protein (huFAP) on NIH/3T3-huFAP clone 19 cells (human, UniProt Q12884 1-760); assay: flow cytometry, NIH/3T3-huFAP clone 19 cells
T2 construct: Mouse NIH/3T3 fibroblasts transfected with vector pETR4921 to express huFAP; also called cell surface FAP
Experimental: In another experiment, a mixture of 2 × 10⁵ NIH/3T3-huFAP clone 19 cells and HeLa cells in FACS buffer were added to each well of a round-bottom 96-well plates (TPP, Cat. No. 92097) and the binding assay was performed. Cells were first stained 20 min with LIVE/DEAD™ Fixable Aqua Dead Cell Stain (Molecular probes, Cat.No. L34957) in DPBS, followed after one washing step with 200 µL 4° C. […] Afterwards the cells were washed once with 200 µL FACS buffer at 4° C. and resuspended by a short vortex. Cells were further stained with 50 µL/well of 4° C. cold secondary antibody solution containing Phycoerythrin (PE)-conjugated AffiniPure anti-human IgG Fcy-fragment-specific goat IgG F(ab′)2 fragment (Jackson ImmunoResearch, Cat. No. 109-116-098) and incubated for 30 minutes at 4° C. in the dark. Samples were finally resuspended in 100 µL/well FACS-buffer and acquired the same day using with BD Fortessa running FACS Diva software.

[4] = target: T1, human OX40 on the cell surface …; assay: flow cytometry, activated human PBMC gated on CD4+ T cells
[5] = target: T3, FcRn (biotinylated, coupled to streptavidin-sepharose); assay: FcRn affinity chromatography; retention compared to protein standards with known affinities
T3 construct: also called neonatal Fc receptor
Experimental: For coupling, the prepared receptor was added to streptavidin-sepharose (GE Healthcare). The resulting FcRn-sepharose matrix was packed in a column housing. The column was equilibrated with 20 mM 2-(N-morpholine)-ethanesulfonic acid (MES) and 140 mM NaCl, pH 5.5 (eluent A) at a 0.5 ml/min flow rate. 30 µg of antibody samples were diluted at a volume ratio of 1: 1 with eluent A and applied to the FcRn column. The column was washed with 5 column volumes of eluent A followed by elution with a linear gradient from 20 to 100% 20 mM Tris/HCl and 140 mM NaCl, pH 8.8 (eluent B) in 35 column volumes. The analysis was performed with a column oven at 25° C. The elution profile was monitored by continuous measurement of the absorbance at 280 nm. Retention times were compared to protein standards with known affinities.

B1: P1AE8874 OX40 (CLC563) x FAP (1G1a) (3+1) C-terminal crossfab fusion (bispecific antibody, human IgG1, kappa, L234A L235A)
heavy 1: not shown
heavy 2: not shown
light 1: not shown
light 2: EIVLTQSPATLSLSPGERATLSCRASESVDNYGLSFINWFQQKPGQAPRLLIYGTSNRGSGIPARFSGSGSGTDFTLTISSLEPEDFAVYFCQQSNEVPYTFGGGTKVEIKSSASTKGPSVFPLAPSSKSTSGGTAALGCLVKDYFPEPVTVSWNSGALTSGVHTFPAVLQSSGLYSLSSVVTVPSSSLGTQTYICNVNHKPSNTKVDKKVEPKSC
notes: 3+1 format; Human IgG1 Fc, knob-into-hole, PGLALA; VL-CH1 chain ends in EPKSC; also called CLC-563 3+1
EC50 of NFκB activation (luciferase), HeLa_hOx40_NFkB_Luc1, w/ hu FAP [1]: 0.24 nM
EC50 of NFκB activation (luciferase), HeLa_hOx40_NFkB_Luc1, w/o [1]: 0.79 nM
CD25 upregulation on CD4+ T cells, AUC compared to reference compound [%] [2]: 100%
EC50 of CD25 upregulation on CD4+ T cells, suboptimal TCR stimulation of human PBMC with NIH/3T3-huFAP cells [2]: 0.04 nM
EC50 [3]: 2.52 nM
EC50 [4]: 3.62 nM
FcRn affinity [5]: -0.14

B4: P1AD3690 untargeted tetravalent OX40 (49B4) antigen binding molecule (4+0) (antibody, V domains shown)
VH: QVQLVQSGAEVKKPGSSVKVSCKASGGTFSSYAISWVRQAPGQGLEWMGGIIPIFGTANYAQKFQGRVTITADKSTSTAYMELSSLRSEDTAVYYCAREYYRGPYDYWGQGTTVTVSS
VL: DIQMTQSPSTLSASVGDRVTITCRASQSISSWLAWYQQKPGKAPKLLIYDASSLESGVPSRFSGSGSGTEFTLTISSLQPDDFATYYCQQYSSQPYTFGQGTKVEIK
EC50 of NFκB activation (luciferase), HeLa_hOx40_NFkB_Luc1, w/ hu FAP [1]: 0.18 nM
EC50 of NFκB activation (luciferase), HeLa_hOx40_NFkB_Luc1, w/o [1]: 0.23 nM
CD25 upregulation on CD4+ T cells, AUC compared to reference compound [%] [2]: 13%

More lines, now with the values ahead:

EC50 of NFκB activation (luciferase), HeLa_hOx40_NFkB_Luc1, w/ hu FAP [1]: 0.19 nM
CD25 upregulation on CD4+ T cells, AUC compared to reference compound [%] [2]: 106%
EC50 of CD25 upregulation on CD4+ T cells, suboptimal TCR stimulation of human PBMC with NIH/3T3-huFAP cells [2]: 0.01 nM
EC50 [3]: 1.78 nM
EC50 [4]: 0.9 nM
FcRn affinity [5]: 0.15
B2: P1AE8872 OX40 (MOXR0916) x FAP (1G1a) (2+1) C-terminal crossfab fusion (bispecific antibody, human IgG1, kappa, L234A L235A)
heavy 1: not shown
heavy 2: EVQLVQSGAEVKKPGASVKVSCKASGYTFTDSYMSWVRQAPGQGLEWIGDMYPDNGDSSYNQKFRERVTITRDTSTSTAYLELSSLRSEDTAVYYCVLAPRWYFSVWGQGTLVTVSSASTKGPSVFPLAPSSKSTSGGTAALGCLVEDYFPEPVTVSWNSGALTSGVHTFPAVLQSSGLYSLSSVVTVPSSSLGTQTYICNVNHKPSNTKVDEKVEPKSCDKTHTCPPCPAPEAAGGPSVFLFPPKPKDTLMISRTPEVTCVVVDVSHEDPEVKFNWYVDGVEVHNAKTKPREEQYNSTYRVVSVLTVLHQDWLNGKEYKCKVSNKALGAPIEKTISKAKGQPREPQVCTLPPSRDELTKNQVSLSCAVKGFYPSDIAVEWESNGQPENNYKTTPPVLDSDGSFFLVSKLTVDKSRWQQGNVFSCSVMHEALHNHYTQKSLSLSP
light 1: not shown
light 2: B1 light 2
notes: 2+1 format; Human IgG1 Fc, knob-into-hole, PGLALA; VL-CH1 chain ends in EPKSC; also called MOX0916 2+1; MOXR0916 2+1

EC50 of NFκB activation (luciferase), HeLa_hOx40_NFkB_Luc1, w/ hu FAP [1]: 0.21 nM
CD25 upregulation on CD4+ T cells, AUC compared to reference compound [%] [2]: 99%
EC50 of CD25 upregulation on CD4+ T cells, suboptimal TCR stimulation of human PBMC with NIH/3T3-huFAP cells [2]: 0.06 nM
EC50 [3]: 2.51 nM
EC50 [4]: 3.19 nM
B3: P1AE8871 OX40 (CLC563) x FAP (1G1a) (2+1) C-terminal crossfab fusion (bispecific antibody, human IgG1, kappa, L234A L235A)
heavy 1: not shown
heavy 2: not shown
light 1: not shown
light 2: B1 light 2
notes: 2+1 format; Human IgG1 Fc, knob-into-hole, PGLALA; VL-CH1 chain ends in EPKSC; also called CLC-563 2+1
